Measured values from doi:10.1101/2023.07.16.549178.

Target: F-actin (UniProt P68135)
Assay: cryoEM (raw images and 2D image averages); full-length myosin-5a with F-actin free in solution, flash frozen in the presence of ATP, low calcium concentration, no cargo adaptor molecules; 1 myosin molecule per 2.5 actin subunits

percent of myosin molecules attached (from counts per um actin): < 10%
percent of observed myosin molecules attached by both heads to one actin filament: 55%
Substance: full-length myosin-5a (from UniProt Q99104 1-1853; P0DP26 1-149) (complex)
